The target in the assay is cetuximab. The experiment in a line: SPR, immobilized cetuximab IgG (Figure 12).

Some results are limits rather than exact numbers.

Drawing on EP3741773A1, this text covers fold reduction of the off-rate against the monovalent meditope for 1 substance.

avidin saturated with biotinylated meditope, sequence (P02701 25-152): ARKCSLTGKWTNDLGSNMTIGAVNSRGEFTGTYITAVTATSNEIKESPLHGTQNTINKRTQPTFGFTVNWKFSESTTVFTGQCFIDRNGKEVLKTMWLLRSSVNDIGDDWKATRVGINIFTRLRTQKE

On to “avidin saturated with biotinylated meditope (from UniProt P02701 25-152)”, for which the fold reduction of the off-rate against the monovalent meditope is over 36 fold.
